Assay: yeast display, Sf9 membrane polyspecificity reagent, FACS + sequencing; frameworks hold sequencing errors
In short: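 In a synthetic yeast display library (Saccharomyces cerevisiae BJ5465), nanobody expression was induced with galactose for 36–48 hours. FACS gates were set low and high (top ~1%) using anti-HA fluorescence for expression and streptavidin fluorescence for binding of the Sf9 membrane reagent. Each polyreactivity label is drawn from the gate of origin.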

Sequence | polyreactivity (PSR sort gate)
QVQLVESGGGLDQAGGSLPLSCAASGSIFYVYTMGTYRQAPGKERELVAAISFRSGSTYYADSVKGRFTISRDNAKNTVYLPMNSLKPEDTAVYYCAKPIPRGRNQLFNYWGQGTEVTVSS | high polyreactivity
QVQLVESGGGLDQAGGSLPLTCAASGRTFWGNAMGWYRQAPGQERELVAGISKSGGTTYADSVKGRFTISRDNAKNTVYLEMNRLKPEDTAVYYCAAGGWWWTIPYEYWGQGTKVTVSS | high polyreactivity
QVQLVESGGGLDQAGGSLRLICAASGFIFVWYAMGWYRPAPGKERELVAAISRRGGGTYYADSVKGRFTISRDNAKNTVYLQMNSLKPEDTAVYYCAAGSYYRYGYDFNYWGQGTQVTVSS | high polyreactivity
QVQLVESGGGLDQAGGSLRLICAASGGTSQRYVMGWYRQAPGKERELVAAITKSGVRTYYADSVKGRFTISRDNAKNKVYLQMNSLKPEDTAVYYCAAKTPTKDRGSDFDYWGQGTQVTVSS | high polyreactivity
QVQLVESGGGLDQAGGSLRLICAASGRTFRFNTMGWYRQAPGKERELVATISRRGGSTYYADSVKGRFTISRDNAKNTVYLLMNSLKPEDTAVYYCAVYGGSYRFDYWGQGTQVTVSS | high polyreactivity
QVQLVESGGGLDQAGGSLRLICADSGSIFYIYAMGWYIHAPGKETELVASISGSGSTYYADSVKGRFRISRDNAKNTVYLQMNSLKPEDTAVYYCAVELWRVWGAYSYTYDYWGQGTQVTVSS | high polyreactivity
QVQLVESGGGLDQAGGSLRLSCAAAGITFTYYAMGWYRPAPGKERELVASITIGGGSTYYADSVKVRFTISRDNAKNTVYLQMKSLKPEDTAVYYCNAAFSVRHLYRYDYWGQGTQVTVSS | low polyreactivity
QVQLVESGGGLDQAGGSLRLSCAASARIFAAYAMGWYRQAPGKEREFVAAITTAGSTHYADSVKGRFTISRDNAKYTVYLQMNSLKPEDTPVYYCAADGIARAYVLFDAYDFLYDYWGQGTQVTVSS | low polyreactivity
QVQLVESGGGLDQAGGSLRLSCAASGFIFDYYAMGWYRQPPWKERELVAAITSGDSTNYADSVKGRFTISRDNAKNTVYLQMNSLKPEDTAVYYCATRFGDRTVSYDSWGQGTQVTVSS | low polyreactivity
QVQLVESGGGLDQAGGSLRLSCAASGFIFFQYAMGWYRQAPGKERELVAAISGSGVTTYYADSVKGRFTISRDNAKNTVYLQMNSLKPEDTAVYYCAADTPPYYAYWDVSFEYYYWGQGTQVTVSS | low polyreactivity
QVQLVESGGGLDQAGGSLRLSCAASGFIFYRYAMGWYRQAPGKERELVAAINWSGGGTYYADSVKGRFTISRDNAKNTVYLQMNSLKPEDTAVYYCAAVRSFRGSYWYEYWGQGTKVTVSS | high polyreactivity
QVQLVESGGGLDQAGGSLRLSCAASGFISPWYAMGWYRPAPGKERELDAAIDWSGGSTYYADSVKGRFTISRDNAKNTVYIQMKSLKPEDTAVYYCAARYYTAAVRAGRVRMYSWGQGTQVTVSS | high polyreactivity
QVQLVESGGGLDQAGGSLRLSCAASGFTFPIYAMGWYRQAPGKERELVAAITTRGGRTYYADSVKGRFTISRDNAKNTVYLQMNSLKPEDTAVYYCNAQGYAYRLWFGYWGQGTQVTVSS | high polyreactivity
QVQLVESGGGLDQAGGSLRLSCAASGFTFYPYTMGWYRQAPGKERELVADITYDSTYYADSVKGRFTISRDNAKNTVFLQMNSLKPADTAVYYCNATGYSVSRSAYWYGWYDYWGQGTQVTVSS | low polyreactivity
QVQLVESGGGLDQAGGSLRLSCAASGIIFRSNAMGWYRQAPGKERELVAAITGRGTRTYYADSVKGRFTISRDNAKNTVYLQMNSLKPEDTAVDYCNTGQTRGMGYWGQGTQVTVSS | high polyreactivity
QVQLVESGGGLDQAGGSLRLSCAASGIIFRWYAMGWYRQAPGKERELVAAITASGGSTYYADSVKGRFTISRDNAKNTVYLQMNSLKPEDTAVYYCNKLRLANIQTDGYYYWGQGTQVTVSS | high polyreactivity

Sequence | polyreactivity (PSR sort gate)
QVQLVESGGGLDQAGGSLRLSCAASGIIITIYAMVWYRQAPGKERELVAAISFSVGSTYYADSVKGRFTISRDNAKNTFFLQMNSLKPEDTAVYYCAAESYTYPFEYWGQGTQVTVSS | high polyreactivity
QVQLVESGGGLDQAGGSLRLSCAASGITFDFNDLGWYRQAPGKERELVACINGNSDSTYYADSVKGRFTISRDIAKNTVFLQMNSLKPEDTAVYYCNVPTVRYRYDSWGQGTQVTVSS | low polyreactivity
QVQLVESGGGLDQAGGSLRLSCAASGITFGFYTMGWYRQAPGKERELVAAITSGGSTSYADSVKGRFTISRDNAKNTVYLQMNSLKPEDTAVYYCAADYLYPFPPYQYWKQSYDYWGQGTQVTVSS | low polyreactivity
QVQLVESGGGLDQAGGSLRLSCAASGITFPYYAMGRYIQAPGKERELVADITSGGSTNYADSVKGRFTISRDNAKNTGYLQMNRLKPEDTAVYYCAADWYVIYDYWGQGTQVSVSS | low polyreactivity
QVQLVESGGGLDQAGGSLRLSCAASGLIFVRYAMGWYRQAPGKERELVATISARGASTYYADSVKGRFTISRDNAKNTVYLQMNSLIPEDTAVYYCANRGYYSRFYSYGYWGQGTEVTVSS | high polyreactivity
QVQLVESGGGLDQAGGSLRLSCAASGLILRRYDMGWYRQAPGKERELVAAISGSGGRTYYADSVKGRFTISRDNAKNTVYLQMNSLKPEDTAVYYCAAEYSYYYDQYSYDYWGQGTQVTVSS | high polyreactivity
QVQLVESGGGLDQAGGSLRLSCAASGNTLNYYTMGWYRQAPGKEREFVAAISWRGSRTYYADSVKGRFTISRDNAKNTVYLQMNRLKQEDTAVYYCATARYGYYGWTPYGDYIFDYWGQGTQVTVSS | high polyreactivity
QVQLVESGGGLDQAGGSLRLSCAASGRIFGFYAMGWYRQAPGKERELVAAITINTGSTSYADSVKGRFTISRDNAKNTVYFQMNSLKPEDTAVYYCATDAAAPKYDYWGQGTQVTVSS | low polyreactivity
QVQLVESGGGLDQAGGSLRLSCAASGRIFLPNAMGWYRQAPGKEMEFVASISWSGGSTYYADSVKGRFTISRDYAKNTVYLQMNSLKPEDTAVYYCNARFGKRYYYWGQGTQVTVSS | low polyreactivity
QVQLVESGGGLDQAGGSLRLSCAASGRIFVIIAMGWYRQAPGKERELVAAISWTGDTTYYADSVKGRFTISRDNAKNTVYLQMNSLKPEDTAVYYCAAEGYYIQSRTYSSDRYDYWGQGTQVTVSS | low polyreactivity
QVQLVESGGGLDQAGGSLRLSCAASGRIFYPYTMGWYRQAPGKERELVAAISSTGRTNYADSVKGRFTISRDNAKNTVYLQMNSLKPEDTAVYYCAKRYRKYSLGPPGNDYWGQGTQVTVSS | high polyreactivity
QVQLVESGGGLDQAGGSLRLSCAASGRIFYQNAMGLSRQAPGKERELVAAITSSGVSTYYADSVKGRFTISRDNAKNTVYLQMNSLKPEDTAVYYCAAYRVGYGGYSYYYWGQGTQVTVSS | high polyreactivity
QVQLVESGGGLDQAGGSLRLSCAASGRIFYYYPMGWYRQAPGKERELVAGIDSGDSTNYADSVKGRFTITRDNAKNTVYLQINSLKPEDTAVYYCAALHYGGYFSYYPYYYWGQGTQATVSS | low polyreactivity
QVQLVESGGGLDQAGGSLRLSCAASGRISGYYDMVWYRQAPGKERELVATITSDGGTNYADSVKGRFTISRDNAKNTVYLQMNSLKPEDTAVYDCAAYGWYTKWHFAYGYWGQGTQVTVSS | low polyreactivity
QVQLVESGGGLDQAGGSLRLSCAASGRISIRNAMGWYRQAPGKETELVAAISRSGGSTYYADSLKGRFTISRDNAKNTVYLQMNSLKPEDTAVYYCAARGYSTYPMDYWGQGTQVTVSS | high polyreactivity

From the nanobody polyreactivity screen of Harvey et al. (2022)
